{"source": "patent US20190023748A1", "about": "(NAVIGEN, published 2019)", "binders": {"B1": {"name": "CPT31 (cholesterol-PIE12-2-trimer with PEG32 fourth-arm spacer) (peptide)", "peptide": "Ac-[dH][dP][dC][dD][dY][dP][dE][dW][dQ][dW][dL][dC][dE][dL]G[PEG4′]K-NH2", "modifications": "disulfide 3-12 (inferred); not fully specified (some residues); numbers in words are those of the source; also: PIE12-2 trimer on scaffold, fourth arm PEG28 + PEG4 with cholesteryl carbamate"}}, "experiment_in_all_cases": "cell-based or functional assay", "key": {"[1]": {"biological_target": "HIV-1 gp41 of isolate CM240/GS022 (AE) (HIV-1 isolate CM240/GS022)"}, "[2]": {"biological_target": "HIV-1 gp41 of isolate CAM1970LE (AG) (HIV-1 isolate CAM1970LE)"}, "[3]": {"biological_target": "HIV-1 gp41 of isolate NI1149 (AE) (HIV-1 isolate NI1149)"}, "[4]": {"biological_target": "HIV-1 gp41 of isolate BK132/GS009 (clade B) (HIV-1 isolate BK132/GS009)"}, "[5]": {"biological_target": "HIV-1 gp41 of isolate PBL286 (clade C) (HIV-1 isolate PBL286)"}, "[6]": {"biological_target": "HIV-1 gp41 of isolate 20635-4 (clade C) (HIV-1 isolate 20635-4)"}, "[7]": {"biological_target": "HIV-1 gp41 of isolate SE364/GS015 (clade C) (HIV-1 isolate SE364/GS015)"}, "[8]": {"biological_target": "HIV-1 gp41 of isolate CAM0005 (AG) (HIV-1 isolate CAM0005)"}, "[9]": {"biological_target": "HIV-1 gp41 of isolate 56313 (clade C) (HIV-1 isolate 56313)"}, "[10]": {"biological_target": "HIV-1 gp41 of isolate CAM0013 (AG) (HIV-1 isolate CAM0013)"}, "[11]": {"biological_target": "HIV-1 gp41 of isolate 3343IN (clade B) (HIV-1 isolate 3343IN)"}, "[12]": {"biological_target": "HIV-1 gp41 of isolate D26830M4 (clade D) (HIV-1 isolate D26830M4)"}, "[13]": {"biological_target": "HIV-1 gp41 of isolate KER2018 (clade A) (HIV-1 isolate KER2018)"}, "[14]": {"biological_target": "HIV-1 gp41 of isolate NP1525 (AE) (HIV-1 isolate NP1525)"}, "[15]": {"biological_target": "HIV-1 gp41 of isolate CAM0002 (AG) (HIV-1 isolate CAM0002)"}, "[16]": {"biological_target": "HIV-1 gp41 of isolate CM235/GS020 (AE) (HIV-1 isolate CM235/GS020)"}, "[17]": {"biological_target": "HIV-1 gp41 of isolate BZ167 (clade B) (HIV-1 isolate BZ167)"}, "[18]": {"biological_target": "HIV-1 gp41 of isolate NI1046 (AE) (HIV-1 isolate NI1046)"}, "[19]": {"biological_target": "HIV-1 gp41 of isolate A08483M1 (clade D) (HIV-1 isolate A08483M1)"}, "[20]": {"biological_target": "HIV-1 gp41 of isolate KNH1207 (clade A) (HIV-1 isolate KNH1207)"}, "[21]": {"biological_target": "HIV-1 gp41 of isolate E08364M4 (clade D) (HIV-1 isolate E08364M4)"}, "[22]": {"biological_target": "HIV-1 gp41 of isolate NI1052 (AE) (HIV-1 isolate NI1052)"}, "[23]": {"biological_target": "HIV-1 gp41 of isolate CAM0015 (AG) (HIV-1 isolate CAM0015)"}, "[24]": {"biological_target": "HIV-1 gp41 of isolate 55815 (AG) (HIV-1 isolate 55815)"}, "[25]": {"biological_target": "HIV-1 gp41 of isolate TZA246 (clade C) (HIV-1 isolate TZA246)"}, "[26]": {"biological_target": "HIV-1 gp41 of isolate SM145/GS016 (clade C) (HIV-1 isolate SM145/GS016)"}, "[27]": {"biological_target": "HIV-1 gp41 of isolate KNH1088 (clade A) (HIV-1 isolate KNH1088)"}, "[28]": {"biological_target": "HIV-1 gp41 of isolate US1/GS0004 (clade B) (HIV-1 isolate US1/GS0004)"}, "[29]": {"biological_target": "HIV-1 gp41 of isolate 0503M02138 (AE) (HIV-1 isolate 0503M02138)"}, "[30]": {"biological_target": "HIV-1 gp41 of isolate TZA68 (clade C) (HIV-1 isolate TZA68)"}, "[31]": {"biological_target": "HIV-1 gp41 of strain JRFL (HIV-1 strain JRFL)"}}, "note": "Bridge positions count the residues as written; N and C are the ends. Square brackets hold non-standard residues; d marks the D form. Primed or numbered codes have the meaning given here. PEG4′ = not defined here", "data": [{"binder": "B1", "values": [{"measurement": "1 nM inhibition", "setting": "[1]", "result": 83.8, "unit": "%"}, {"measurement": "10 nM inhibition", "setting": "[1]", "result": 95, "unit": "%"}, {"measurement": "1 nM inhibition", "setting": "[2]", "result": 97.3, "unit": "%"}, {"measurement": "10 nM inhibition", "setting": "[2]", "result": 98.5, "unit": "%"}, {"measurement": "1 nM inhibition", "setting": "[3]", "result": 92.9, "unit": "%"}, {"measurement": "10 nM inhibition", "setting": "[3]", "result": 97.4, "unit": "%"}, {"measurement": "1 nM inhibition", "setting": "[4]", "result": 99.7, "unit": "%"}, {"measurement": "10 nM inhibition", "setting": "[4]", "result": 99.8, "unit": "%"}, {"measurement": "1 nM inhibition", "setting": "[5]", "result": 95.8, "unit": "%"}, {"measurement": "10 nM inhibition", "setting": "[5]", "result": 99, "unit": "%"}, {"measurement": "1 nM inhibition", "setting": "[6]", "result": 99, "unit": "%"}, {"measurement": "10 nM inhibition", "setting": "[6]", "result": 99.6, "unit": "%"}, {"measurement": "1 nM inhibition", "setting": "[7]", "result": 91.6, "unit": "%"}, {"measurement": "10 nM inhibition", "setting": "[7]", "result": 97.7, "unit": "%"}, {"measurement": "1 nM inhibition", "setting": "[8]", "result": 98.4, "unit": "%"}, {"measurement": "10 nM inhibition", "setting": "[8]", "result": 99.8, "unit": "%"}, {"measurement": "1 nM inhibition", "setting": "[9]", "result": 97.9, "unit": "%"}, {"measurement": "10 nM inhibition", "setting": "[9]", "result": 99.3, "unit": "%"}, {"measurement": "1 nM inhibition", "setting": "[10]", "result": 98.4, "unit": "%"}, {"measurement": "10 nM inhibition", "setting": "[10]", "result": 99.7, "unit": "%"}, {"measurement": "1 nM inhibition", "setting": "[11]", "result": 97.6, "unit": "%"}, {"measurement": "10 nM inhibition", "setting": "[11]", "result": 99.1, "unit": "%"}, {"measurement": "1 nM inhibition", "setting": "[12]", "result": 95.3, "unit": "%"}, {"measurement": "10 nM inhibition", "setting": "[12]", "result": 98.5, "unit": "%"}, {"measurement": "1 nM inhibition", "setting": "[13]", "result": 94.8, "unit": "%"}, {"measurement": "10 nM inhibition", "setting": "[13]", "result": 97.5, "unit": "%"}, {"measurement": "1 nM inhibition", "setting": "[14]", "result": 98.8, "unit": "%"}, {"measurement": "10 nM inhibition", "setting": "[14]", "result": 99.3, "unit": "%"}, {"measurement": "1 nM inhibition", "setting": "[15]", "result": 95.6, "unit": "%"}, {"measurement": "10 nM inhibition", "setting": "[15]", "result": 99.7, "unit": "%"}, {"measurement": "1 nM inhibition", "setting": "[16]", "result": 81.8, "unit": "%"}, {"measurement": "10 nM inhibition", "setting": "[16]", "result": 98.7, "unit": "%"}, {"measurement": "1 nM inhibition", "setting": "[17]", "result": 99.4, "unit": "%"}, {"measurement": "10 nM inhibition", "setting": "[17]", "result": 99.8, "unit": "%"}, {"measurement": "1 nM inhibition", "setting": "[18]", "result": 99.1, "unit": "%"}, {"measurement": "10 nM inhibition", "setting": "[18]", "result": 99.7, "unit": "%"}, {"measurement": "1 nM inhibition", "setting": "[19]", "result": 69.2, "unit": "%"}, {"measurement": "10 nM inhibition", "setting": "[19]", "result": 72.3, "unit": "%"}, {"measurement": "1 nM inhibition", "setting": "[20]", "result": 92.1, "unit": "%"}, {"measurement": "10 nM inhibition", "setting": "[20]", "result": 98.2, "unit": "%"}, {"measurement": "1 nM inhibition", "setting": "[21]", "result": 50.7, "unit": "%"}, {"measurement": "10 nM inhibition", "setting": "[21]", "result": 58.6, "unit": "%"}, {"measurement": "1 nM inhibition", "setting": "[22]", "result": 98, "unit": "%"}, {"measurement": "10 nM inhibition", "setting": "[22]", "result": 99.7, "unit": "%"}, {"measurement": "1 nM inhibition", "setting": "[23]", "result": 96, "unit": "%"}, {"measurement": "10 nM inhibition", "setting": "[23]", "result": 97, "unit": "%"}, {"measurement": "1 nM inhibition", "setting": "[24]", "result": 98.8, "unit": "%"}, {"measurement": "10 nM inhibition", "setting": "[24]", "result": 99.5, "unit": "%"}, {"measurement": "1 nM inhibition", "setting": "[25]", "result": 98.3, "unit": "%"}, {"measurement": "10 nM inhibition", "setting": "[25]", "result": 98.4, "unit": "%"}, {"measurement": "1 nM inhibition", "setting": "[26]", "result": 30.6, "unit": "%"}, {"measurement": "10 nM inhibition", "setting": "[26]", "result": 75.7, "unit": "%"}, {"measurement": "1 nM inhibition", "setting": "[27]", "result": 98.5, "unit": "%"}, {"measurement": "10 nM inhibition", "setting": "[27]", "result": 99.6, "unit": "%"}, {"measurement": "1 nM inhibition", "setting": "[28]", "result": 95.3, "unit": "%"}, {"measurement": "10 nM inhibition", "setting": "[28]", "result": 97.7, "unit": "%"}, {"measurement": "1 nM inhibition", "setting": "[29]", "result": 95.2, "unit": "%"}, {"measurement": "10 nM inhibition", "setting": "[29]", "result": 98, "unit": "%"}, {"measurement": "1 nM inhibition", "setting": "[30]", "result": 97.7, "unit": "%"}, {"measurement": "10 nM inhibition", "setting": "[30]", "result": 99.7, "unit": "%"}, {"measurement": "Antiviral potency, IC50, JRFL pseudovirion entry assay", "setting": "[31]", "result": 0.015, "unit": "nM"}]}]}
